According to patent US20250002583A1 (PERSONGEN BIOTHERAPEUTICS SUZHOU, published 2025):

T1: B7-H3 (CD276) Protein, Human, Recombinant (His Tag) (Human, UniProt Q5ZPR3 29-461, limits assumed)
T1 construct: Bought protein; also called CD276-His recombinant protein; CD276 recombinant protein; not shown: His tag
T1 sequence (looked up): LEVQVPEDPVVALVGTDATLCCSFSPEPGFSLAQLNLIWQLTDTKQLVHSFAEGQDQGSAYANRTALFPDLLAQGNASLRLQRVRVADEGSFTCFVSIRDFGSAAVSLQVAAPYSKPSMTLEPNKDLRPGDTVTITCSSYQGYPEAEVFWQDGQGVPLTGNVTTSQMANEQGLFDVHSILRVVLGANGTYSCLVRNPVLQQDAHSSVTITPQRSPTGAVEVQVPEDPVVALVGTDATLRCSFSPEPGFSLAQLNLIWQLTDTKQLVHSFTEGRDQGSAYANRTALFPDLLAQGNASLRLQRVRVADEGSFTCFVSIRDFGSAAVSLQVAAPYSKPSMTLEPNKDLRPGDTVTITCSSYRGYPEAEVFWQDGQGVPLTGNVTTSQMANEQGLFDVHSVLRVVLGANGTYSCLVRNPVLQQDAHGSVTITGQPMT

B1: CD276 Chimeric (antibody, V domains shown)
VH: EVTLVESGGGLVKPGGSLKLSCAASGFTFSTYVMSWVRQTPEKRLEWVASILSGGTSFYADNVKGRFTISRENARNILYLQMSSLKSEDTAMYYCVRRYGHDHYYAMDYWGQGTSVTVSS
VL: QIVLTQSPANMSASLGERVTMTCAASSSVSSSYLHWYQQKPGSSPKLWIYSTSNLASGVPGRFNGSGSGTSYSLTISSMEAEDAATYYCHQYHRSPWTFGGGTKLEIK
notes: Murine variable regions cloned into pcDNA3.1-IgG1Fc (heavy) and pcDNA3.1-IgKc (light); also called human-mouse chimeric antibody; human-murine chimeric antibody
B2: CD276T1H1-T1L1 (antibody, V domains shown)
VH: EVQLVESGGGLIQPGGSLRLSCAASGFTFSTYVMSWVRQAPGKGLEWVSSILSGGTSFYADNVKGRFTISRDNSKNTLYLQMNSLRAEDTAVYYCARRYGHDHYYAMDYWGQGTLVTVSS
VL: EIVLTQSPATLSLSPGERATLSCAASSSVSSSYLHWYQQKPGLAPRLLIYSTSNLASGIPDRFSGSGSGTDFTLTISRLEPEDFAVYYCQQYHRSPWTFGGGTKVEIK
notes: Heavy chain variable region cloned into pcDNA3.1-IgG1Fc and light chain variable region into pcDNA3.1-IgKc (IgG1, kappa); also called humanized CD276 antibody (CD276T1H1-T1L1); CD276 humanized antibody
B3: CD276T2H1-T2L1 (antibody, V domains shown)
VH: EVQLVESGGGVVRPGGSLRLSCAASGFTFSTYVMSWVRQAPGKGLEWVSSILSGGTSFYADNVKGRFTISRDNAKNSLYLQMNSLRAEDTALYHCARRYGHDHYYAMDYWGQGTTVTVSS
VL: DIQMTQSPSTLSASVGDRVTITCAASSSVSSSYLHWYQQKPGKAPKLLIYSTSNLASGVPSRFSGSGSGTEFTLTISSLQPDDFATYYCQQYHRSPWTFGQGTKLEIK
notes: Heavy chain variable region cloned into pcDNA3.1-IgG1Fc and light chain variable region into pcDNA3.1-IgKc (IgG1, kappa)

Molecular target: T1, B7-H3 (CD276) Protein, Human, …
Experiment: SPR (BiaCore T200), CD276 recombinant protein amine-coupled on CM5 chip, antibody as analyte

Row | Binder | Kd [nM] | koff [s⁻¹] | kon [M⁻¹ s⁻¹]
1 | B1 | 70.8 | 0.00258 | 36400
2 | B2 | 114 | 0.00282 | 24800
3 | B3 | 72.8 | 0.00289 | 39700
